Here are results for one molecule from US20020098183A1 (published 2002).

The target of this experiment is T1, human L-selectin (on human leukocytes) (human, UniProt P14151 39-372).
T1 construct: whole, on cells; also called LECAM-1; Lam-1
T1 sequence (looked up): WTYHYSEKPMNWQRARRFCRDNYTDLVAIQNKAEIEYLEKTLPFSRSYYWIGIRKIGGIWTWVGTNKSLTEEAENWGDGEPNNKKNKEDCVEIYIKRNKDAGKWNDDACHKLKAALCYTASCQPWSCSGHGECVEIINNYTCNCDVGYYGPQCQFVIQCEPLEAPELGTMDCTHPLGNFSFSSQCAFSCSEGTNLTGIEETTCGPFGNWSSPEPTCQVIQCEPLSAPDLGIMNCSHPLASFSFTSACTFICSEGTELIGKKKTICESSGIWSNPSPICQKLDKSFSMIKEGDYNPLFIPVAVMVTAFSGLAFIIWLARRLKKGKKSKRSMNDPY
Briefly: binding to leukocytes (e.g. FACS analysis).

B1: HuDreg 55 humanized anti-L-selectin antibody (antibody, human IgG4, kappa, V domains shown)
VH: EVQLVESGGGLVQPGGSLRLSCAASGFTFSTYAMSWVRQAPGKGLEWVASISTGGSTYYPDSVKGRFTISRDNAKNTLYLQMNSLRAEDTAVYYCARDYDGYFDYWGQGTLVTVSS
VL: DIQMTQSPSSLSASVGDRVTITCKASQSVDYDGDSYMNWYQQKPGKAPKLLIYAASNLESGIPSRFSGSGSGTDFTLTISSLQPEDFATYYCQQSNEDPWTFGQGTKVEIKR
As for B1, the binding result was “binds”.
